The results in this text go back to patent US20220089692A1.

The assay concerns the target SARS-CoV-2 Spike RBD-His Recombinant Protein (SARS-CoV-2) (UniProt P0DTC2). The experiment in a line: monoclonal phage ELISA, SPIKE RBD coated 200 ng/well; helper phage control.

Take M13KO7 auxiliary phage: the ELISA signal (OD450) was 0.0434.
